Results: paper PMC6769930, “Endoglin Protein Interactome Profiling Identifies TRIM21 and Galectin-3 as New Binding Partners” (Cells, 2019)

Tests used:
Test in all cases: peptide or protein array; ProtoArray human protein Microarray v5.0 (over 9000 human proteins arrayed) probed with recombinant sEng in two replicates; detection with anti-endoglin mAb SN6h and HRP secondary antibody; hits with Z-score >=2.0 in both arrays
Conditions in all cases: both partners purified
[1] = biological target: T1, Cell cycle associated protein 1 (CAPRIN1), transcript variant 1 (human, UniProt Q14444-1 1-709)
T1 construct: human CAPRIN1, transcript variant 1; source: bought: ProtoArray human protein Microarray v5.0 (Life Technologies), individually purified and arrayed
T1 sequence (looked up): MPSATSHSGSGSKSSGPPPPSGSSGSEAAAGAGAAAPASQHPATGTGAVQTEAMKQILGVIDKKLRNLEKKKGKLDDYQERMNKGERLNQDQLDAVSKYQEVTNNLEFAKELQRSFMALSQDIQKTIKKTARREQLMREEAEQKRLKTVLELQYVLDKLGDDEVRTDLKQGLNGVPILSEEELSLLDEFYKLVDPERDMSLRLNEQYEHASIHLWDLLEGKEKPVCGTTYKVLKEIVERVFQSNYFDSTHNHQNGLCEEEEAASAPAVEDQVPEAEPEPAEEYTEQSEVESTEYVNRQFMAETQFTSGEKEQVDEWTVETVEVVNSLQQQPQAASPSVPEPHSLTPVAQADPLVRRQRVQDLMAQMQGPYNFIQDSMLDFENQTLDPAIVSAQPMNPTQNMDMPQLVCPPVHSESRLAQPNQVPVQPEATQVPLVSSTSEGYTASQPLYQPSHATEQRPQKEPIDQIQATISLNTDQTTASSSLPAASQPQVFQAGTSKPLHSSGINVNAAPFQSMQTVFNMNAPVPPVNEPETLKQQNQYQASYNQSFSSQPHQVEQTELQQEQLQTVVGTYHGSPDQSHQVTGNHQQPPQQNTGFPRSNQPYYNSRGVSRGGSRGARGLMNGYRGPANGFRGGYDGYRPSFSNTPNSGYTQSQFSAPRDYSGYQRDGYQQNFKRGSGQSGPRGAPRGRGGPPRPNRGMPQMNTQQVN

[2] = biological target: RNA polymerase-associated protein RTF1 homolog (RTF1) (human, UniProt Q92541 1-710)
[3] = biological target: T2, Lamin A/C (LMNA), transcript variant 2 (human, UniProt P02545-2 1-572)
T2 construct: source: bought: ProtoArray human protein Microarray v5.0 (Life Technologies), individually purified and arrayed
T2 sequence (looked up): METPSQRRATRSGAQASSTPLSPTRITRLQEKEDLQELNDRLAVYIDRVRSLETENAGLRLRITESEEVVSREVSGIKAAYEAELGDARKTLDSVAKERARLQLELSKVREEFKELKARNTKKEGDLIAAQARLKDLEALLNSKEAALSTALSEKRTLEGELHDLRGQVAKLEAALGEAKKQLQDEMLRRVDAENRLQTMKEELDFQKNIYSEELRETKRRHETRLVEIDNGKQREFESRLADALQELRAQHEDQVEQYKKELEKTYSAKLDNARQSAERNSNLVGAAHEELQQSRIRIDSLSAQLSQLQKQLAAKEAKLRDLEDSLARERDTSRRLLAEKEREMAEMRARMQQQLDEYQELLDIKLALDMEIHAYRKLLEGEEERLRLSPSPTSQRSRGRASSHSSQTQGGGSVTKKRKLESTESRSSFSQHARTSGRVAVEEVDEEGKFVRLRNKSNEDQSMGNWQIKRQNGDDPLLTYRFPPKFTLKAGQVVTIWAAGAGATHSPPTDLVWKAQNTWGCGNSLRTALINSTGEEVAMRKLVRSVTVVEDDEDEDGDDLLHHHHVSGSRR

[4] = biological target: T3, YTH domain family, member 2 (YTHDF2) (human, UniProt Q9Y5A9 1-579)
T3 construct: human YTHDF2; source: bought: ProtoArray human protein Microarray v5.0 (Life Technologies), individually purified and arrayed
T3 sequence (looked up): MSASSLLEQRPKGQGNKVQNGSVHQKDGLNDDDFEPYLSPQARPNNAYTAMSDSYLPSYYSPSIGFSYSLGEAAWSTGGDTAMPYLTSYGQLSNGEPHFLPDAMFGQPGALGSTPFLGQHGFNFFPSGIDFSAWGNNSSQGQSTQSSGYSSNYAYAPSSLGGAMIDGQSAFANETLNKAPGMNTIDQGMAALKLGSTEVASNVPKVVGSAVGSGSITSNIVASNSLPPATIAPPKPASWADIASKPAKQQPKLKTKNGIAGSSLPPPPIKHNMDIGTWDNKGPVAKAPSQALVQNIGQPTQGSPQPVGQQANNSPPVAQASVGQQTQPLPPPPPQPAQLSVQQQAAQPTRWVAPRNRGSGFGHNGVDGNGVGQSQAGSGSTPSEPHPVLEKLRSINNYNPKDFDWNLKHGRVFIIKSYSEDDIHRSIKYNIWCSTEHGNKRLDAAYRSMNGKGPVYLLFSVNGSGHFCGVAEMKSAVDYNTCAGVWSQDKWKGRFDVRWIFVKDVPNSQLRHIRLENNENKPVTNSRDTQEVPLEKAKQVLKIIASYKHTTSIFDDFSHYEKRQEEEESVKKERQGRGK

Measured: binding result

B1: recombinant human soluble endoglin (sEng; Glu26-Gly586) (domain or fragment, UniProt P17813 26-586, looked up)
chain: ETVHCDLQPVGPERGEVTYTTSQVSKGCVAQAPNAILEVHVLFLEFPTGPSQLELTLQASKQNGTWPREVLLVLSVNSSVFLHLQALGIPLHLAYNSSLVTFQEPPGVNTTELPSFPKTQILEWAAERGPITSAAELNDPQSILLRLGQAQGSLSFCMLEASQDMGRTLEWRPRTPALVRGCHLEGVAGHKEAHILRVLPGHSAGPRTVTVKVELSCAPGDLDAVLILQGPPYVSWLIDANHNMQIWTTGEYSFKIFPEKNIRGFKLPDTPQGLLGEARMLNASIVASFVELPLASIVSLHASSCGGRLQTSPAPIQTTPPKDTCSPELLMSLIQTKCADDAMTLVLKKELVAHLKCTITGLTFWDPSCEAEDRGDKFVLRSAYSSCGMQVSASMISNEAVVNILSSSSPQRKKVHCLNMDSLSFQLGLYLSPHFLQASNTIEPGQQSFVQVRVSPSVSEFLLQLDSCHLDLGPEGGTVELIQGRAAKGNCVSLLSPSPEGDPRFSFLLHFYTVPIPKTGTLSCTVALRPKTGSQDQEVHRTVFMRLNIISPDLSGCTSKG
notes: human endoglin (CD105), extracellular domain, Glu26-Gly586; The same bought protein was the probe of the array and the analyte of the BLI; also called recombinant human endoglin/CD105 protein; source: bought: R&D Systems (1097-EN), purified recombinant
binds: all assays above
